Source: the supplement of paper PMC10724198
± gives the standard deviation of the averaged measurements.

tested on: Saccharomyces cerevisiae; experiment: protein stability index of tFT-peptide fusion (C-terminal peptide) (PSI (0-1 scale)); higher = more stable (slower turnover); details: genetic background: wild type; temperature: 30 C
Method: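 Multiplexed protein stability (MPS) profiling in S. cerevisiae. Random 12-aa peptides (tFT-X12 library) are fused to the C-terminus of a sfGFP-mCherry tandem fluorescent timer, after mCherry and a GGGS linker. Cells are FACS-sorted into 8 mCherry/sfGFP bins and deep-sequenced. The protein stability index (PSI) is the read-weighted bin average, scaled from 0 (unstable) to 1 (stable). Only peptides with >10 reads are reported; cells were grown at 30 °C in SC-His with glucose.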
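Note: PSI is a weighted mean of sequencing reads over stability bins, variants kept only with over 10 reads, mCherry proximal and sfGFP distal, peptide attached via GGGS linker.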

In order of rising protein stability index:
1. EEVAISFFFLSL  0.468 ± 0.055
2. DTFLGSLFIFIR  0.522 ± 0.011
3. EMGGLKACRGGG  0.553 ± 0.026
4. DRFLPPALVMYI  0.566 ± 0.038
5. EGINVEICISLL  0.573 ± 0.083
6. DLCLRSTLPLFL  0.585 ± 0.016
7. ELRCEMEFWCER  0.594 ± 0.0066
8. EERGESRGWRVK  0.604 ± 0.045
9. ELGVGVLDRGCL  0.608 ± 0.22
10. DGGSGQGMFGGS  0.611 ± 0.039
11. EGWPGGRGGAGL  0.614 ± 0.032
12. DVISRSTRIMGE  0.617 ± 0.018
13. DSSYVYHFRCVS  0.62055 ± 0.00019
14. EAKKKKRRDRKE  0.621 ± 0.029
15. DSFGSERYEPCK  0.622 ± 0.0097
16. EARRGTAGGQKK  0.626 ± 0.039
17. DFSSLIISFPFI  0.627 ± 0.059
18. DGTTAIAGPHPT  0.629 ± 0.052
19. EREREKGEEEEG  0.629 ± 0.0079
20. DDPGPSTHPRSA  0.63 ± 0.0069
21. EIGWTEGGECVG  0.632 ± 0.051
22. EPMHTLKSIITH  0.635 ± 0.073
23. EPNSPTYLSMLI  0.637 ± 0.018
24. DRGWPHTYNTIL  0.639 ± 0.1
25. ERASGNWQVYKG  0.639 ± 0.011
26. DLSVSDGCVAFG  0.64 ± 0.048
27. EAQWRGVRHHSR  0.641 ± 0.036
28. EEGAGLLWSAVG  0.641 ± 0.014
29. DVSSRDLCWLVC  0.6422 ± 0.0052
30. DIYNRNKRRDIT  0.644 ± 0.0067
31. EGPPYSRYKGGS  0.645 ± 0.11
32. DFCPVYRVIIWN  0.646 ± 0.029
33. DGCLTKPGQCHG  0.646 ± 0.013
34. DERREADLYPGE  0.648 ± 0.059
35. DESWCVPCPSSL  0.648 ± 0.0065
36. DDGGSVTERDKS  0.649 ± 0.007
37. DFVGVVGFLVAG  0.65 ± 0.032
38. EGGGAGGLMRPE  0.65 ± 0.016
39. DRVGGCESRAGR  0.651 ± 0.04
40. DVFCFWCVSGFV  0.651 ± 0.082
41. ECGAGRVYGDPW  0.652 ± 0.063
42. DCYFNVHFKSIG  0.654 ± 0.074
43. DTVTGNWGVGLG  0.657 ± 0.02
44. DDFPNKHVEPKA  0.658 ± 0.014
45. DPPPLPPAHSAS  0.658 ± 0.034
46. EGACPFLSFRGF  0.658 ± 0.024
47. EKKTNEKNSYNL  0.659 ± 0.016
48. EALKCFADAYTC  0.661 ± 0.063
49. DGGRGQGMLGGS  0.662 ± 0.063
50. DTWRADKRGMKV  0.662 ± 0.052
51. EKKKKENKVKRF  0.664 ± 0.013
52. EKKNGKEKEKER  0.6647 ± 0.0062
53. DVGISICLLHGA  0.6664 ± 0.002
54. DLILECRYEVGV  0.667 ± 0.053
55. EKKKNKTQLKTK  0.667 ± 0.024
56. ERALYGFSSIFY  0.667 ± 0.075
57. DLSFVLAPFVSP  0.6683 ± 0.0038
58. DVYLVGLGVWSS  0.668 ± 0.035
59. EGGPRTGGRGSR  0.67 ± 0.035
60. EQSERINKKARK  0.67 ± 0.063
61. DGSFWKGQGAGV  0.671 ± 0.011
62. EKKKKNKNQEKQ  0.671 ± 0.044
63. EKKRQKKQKTGK  0.67136 ± 0.00051
64. EPESPVTARAKP  0.672 ± 0.031
65. DFSNDCLRVLGD  0.673 ± 0.021
66. EGHREARGGMAR  0.673 ± 0.018
67. EGVSNGCAILLF  0.673 ± 0.029
68. DGARECRDDVCS  0.675 ± 0.017
69. DIAFFEGSGGTM  0.675 ± 0.096
70. DRRRVIIKENKA  0.675 ± 0.024
71. EEGVARYVERWV  0.675 ± 0.0075
72. DLWTRGAVHRKA  0.6756 ± 0.0061
73. ELSARVCLGSLF  0.676 ± 0.015
74. DLLAVPALTLHL  0.677 ± 0.14
75. EKGAEGDHGEVR  0.678 ± 0.017
76. ELFGSGERRVVV  0.68 ± 0.014
77. EMGTTMATPCDH  0.681 ± 0.0073
78. DGAVRLGVGGLG  0.682 ± 0.041
79. DRRETASGVSVR  0.682 ± 0.025
80. DDWCLVGGLCDC  0.684 ± 0.033
81. DLVNTVCTVLDN  0.6836 ± 0.0039
82. EGGGGGAGDARR  0.685 ± 0.017
83. ELVRIVREEYRC  0.685 ± 0.1
84. DKGTDKDDVKIM  0.686 ± 0.011
85. DSFLFVPREVAD  0.687 ± 0.013
86. ENGRRTDKKVST  0.687 ± 0.023
87. DVYFHTRSCGTP  0.688 ± 0.016
88. EAGRRVGARRVG  0.689 ± 0.059
89. EGGESRGKGYRS  0.691 ± 0.025
90. ELPECEHLTSLT  0.691 ± 0.068
91. EKKKEKHKDQEK  0.692 ± 0.055
92. DVVFRLAFTDFC  0.693 ± 0.021
93. EGGGGVEGAAWG  0.694 ± 0.022
94. EGGGWGRYDGFG  0.69378 ± 9.6e-05
95. EKIRGFPGEIGE  0.694 ± 0.022
96. DERSWLPLFFST  0.695 ± 0.035
97. DLTRALQAGHDR  0.695 ± 0.039
98. EKGRVGLKIIKE  0.695 ± 0.038
99. DLCSPWGVDGVK  0.696 ± 0.00079
100. ERAGPGGARRVD  0.696 ± 0.018
101. EASSRITFGLII  0.698 ± 0.041
102. DGKNSGHGLAKT  0.702 ± 0.087
103. DIRRSSMFKPKS  0.702 ± 0.074
104. DDWNLQEAQSLY  0.703 ± 0.053
105. DHIALIWGCSNF  0.703 ± 0.06
106. DLLYGLAMSLSN  0.704 ± 0.012
107. DPVGFSEMYLRV  0.705 ± 0.0078
108. EPNKGTNMKVND  0.705 ± 0.048
109. DLQKKKEILSQK  0.707 ± 0.029
110. DQRRWLWGGILK  0.707 ± 0.018
111. DPAHPRPFDCPL  0.709 ± 0.013
112. DVLESPVLYPTN  0.70948 ± 7.6e-05
113. DQLETTSAPLPG  0.711 ± 0.044
114. DSRFMLYIHSSR  0.7132 ± 0.0038
115. EKPIPFCSSVAS  0.713 ± 0.063
116. DGGGGGGAPRVR  0.715 ± 0.11
117. DTDDARGVWGSV  0.7151 ± 0.0058
118. DMDLAVTRHIRS  0.718 ± 0.1
119. DPLIILLSSVKL  0.718 ± 0.0099
120. EGRGQRGARAAQ  0.7181 ± 0.0034
121. ERERREGEGKRQ  0.721 ± 0.023
122. EKVWTLTGLSHL  0.722 ± 0.04
123. EKGWFDLGGCQV  0.723 ± 0.035
124. ENQGQSYVTMRY  0.725 ± 0.046
125. DETRQTYRNRKG  0.728 ± 0.12
126. DEVLVSGGKWWE  0.73 ± 0.1
127. DDATLAVCRGWV  0.731 ± 0.028
128. EPLLVSPATPNL  0.7311 ± 0.00091
129. DTSENSVKFTKV  0.733 ± 0.075
130. DQRRKKKPIKGN  0.736 ± 0.12
131. ELRSYAGMSGFN  0.736 ± 0.014
132. DVGIVPGVFWWV  0.738 ± 0.054
133. DYRTLGPAPDKS  0.74 ± 0.035
134. EGMENECDLRIK  0.74 ± 0.066
135. EQSWEVWGRGQG  0.744 ± 0.022
136. DSSGATGLLYML  0.746 ± 0.022
137. ENNWILSIKEKT  0.747 ± 0.02
138. DWVLGRRDTRKP  0.752 ± 0.025
139. EEYFFVNLFFAS  0.752 ± 0.085
140. DRTNIIGVIDDL  0.753 ± 0.05
141. ENQGQKQKKKKR  0.753 ± 0.046
142. DVAEAGPRPPPT  0.755 ± 0.091
143. DRPDLVLAGVCG  0.756 ± 0.06
144. EIGWEGLEGRGG  0.756 ± 0.11
145. EQGAGFWVGGEV  0.757 ± 0.099
146. DRHLNRPRVKKR  0.758 ± 0.076
147. EKHLKKEIQIKK  0.76 ± 0.07
148. EKYGKKIRRKNR  0.766 ± 0.11
149. DGVQTVPFSCRL  0.773 ± 0.28
150. EERHAEPRNCMF  0.773 ± 0.015
151. EEWGSLEWTAGR  0.778 ± 0.019
152. DWYSGVTYGPCS  0.78 ± 0.062
153. ELELDRTEWVTI  0.799 ± 0.05
154. ELLTCSSSVMLL  0.799 ± 0.026
155. DVVGRGRGPVRL  0.802 ± 0.033
